# Assay results: patent US9382316B2, “Humanized anti-EMAP II antibody and use thereof” (Cell & Bio Co., Ltd., dated 2016)
# “And” between values parts separate entries of the source, which are not always exact repeats. Equal entries are not always repeated.
# T1: human EMAPII (endothelial monocyte activating polypeptide II) antigen (human)
# T1 chain: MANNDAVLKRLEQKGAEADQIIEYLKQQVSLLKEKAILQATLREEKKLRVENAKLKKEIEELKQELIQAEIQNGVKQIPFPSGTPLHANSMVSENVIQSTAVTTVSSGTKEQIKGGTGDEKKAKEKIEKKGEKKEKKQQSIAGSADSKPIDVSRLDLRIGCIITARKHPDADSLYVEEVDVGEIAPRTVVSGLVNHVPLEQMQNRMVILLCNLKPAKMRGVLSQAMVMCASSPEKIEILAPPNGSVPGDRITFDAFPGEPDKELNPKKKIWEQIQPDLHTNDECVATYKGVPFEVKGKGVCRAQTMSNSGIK
# B1: mouse anti-EMAPII monoclonal antibody (antibody, V domains shown)
# VH: QVQLQQSGAELARPGASVKMSCKASGYTFTSYTMHWVKQRPGQGLEWIGYINPSSGFTNYNQKFKDKATLTADKSSSTAYMQLSSLTSEDSAVYYCASRFAYWGQGTLVTVSA
# VL: DIVMTQSHKFMSTSVGDRVSITCKASQDVSTAVAWYQQKPGQSPKLLIFSASYRYTGVPDRFTGSGSGTDFTFTISSVQAEDLAVYYCQQHYSTPYTFGGGTKLEIK
# B2: mouse/human chimeric antibody BAP015_1 (antibody, V domains shown)
# VH: B1 VH
# VL: B1 VL
# How the values were obtained:
# [1] = target: T1, human EMAPII (endothelial monocyte …); test: ELISA, plate coated with EMAPII antigen, anti-mouse IgG-HRP detection
# [2] = target: T1, human EMAPII (endothelial monocyte …); test: ELISA, plate coated with 2.5 ug/ml EMAPII antigen, anti-human-IgG HRP detection; range over the 3 clones
EC50 [1] [µg/mL],EC50 [2],Binder
0.0209,,B1
,0.0215 µg/mL and 0.0302 µg/mL,B2
